# Measurements from publication PMC6211226, “Intracellular Signaling by the comRS System in Streptococcus mutans Genetic Competence” (mSphere, 2018).
# {BodipyFLX} = Bodipy FL-X fluorophore label on the DNA probe
# Legend:
# [1] = target: ComR;XIP (Streptococcus mutans UA159;Streptococcus mutans) (UniProt Q8DWI6); assay: fluorescence polarization; details: Previously described reaction buffer (ref 53; composition not given) + 1 mM EDTA, 0.05 mg/ml salmon DNA, 1 nM probe, 37 C, 20 min; ComR dialyzed into PBS pH …
# [2] = target: XIP (sigX-inducing peptide), synthetic (Streptococcus mutans); assay: fluorescence polarisation; ComR titrated into 1 nM Bodipy FL-X-labelled PcomX stem-loop DNA probe with 10 µM XIP or ComS, 0.05 mg/ml salmon DNA, 1 mM EDTA, 37°C 20 min; together with competition by unlabeled DNA at 1.5 µM ComR; read-out is on the DNA probe, k1 and n of the ComR/peptide complex come from the fit of a two-step cooperative model
# [3] = target: ComS (full-length, 17 residues), synthetic (Streptococcus mutans); assay: as above
# [4] = tested on: ComR; assay: Fluorescence polarization competition assay with unlabeled DNA probes; type: binding; details: 1.5 µM ComR, 10 µM ComS or XIP, 1 nM labeled PcomX DNA; PcomS vs PcomX
# Method: FIG 5 ComS and XIP interact with ComR to bind the comX promoter. A fluorescence polarization assay testing interaction of ComS and XIP peptides with ComR and the PcomX transcriptional activation site was performed. The DNA probe was labeled with a Bodipy FL-X fluorophore. (A) Titration of ComR into a solution containing 10 µM XIP (blue) or full-length ComS (green), labeled DNA probe (1 nM), and 0.05 mg ml^−^1 salmon DNA. The negative control (black) contained no ComS or XIP peptide. (B) Competition assay in which unlabeled promoter sequence DNA was titrated into a solution containing ComR (1.5 µM), fluorescent DNA probe (1 nM), and peptide (either ComS or XIP, 10 µM). Unlabeled PcomX DNA was used with XIP (blue) and ComS (green). An unlabeled PcomS probe was also tested for its ability to compete with the fluorescent PcomX probe in the presence of XIP (red) and ComS (gold). […]
# Competing unlabeled probe assays were performed with 1.5 µM ComR in the same buffer containing 1 nM PcomX fluorescent DNA and 10 µM SHP (either ComS or XIP). […] Reaction mixtures were again incubated at 37°C for 20 min before polarization readings were taken. In all FP experiments, reading was performed three times on the same plate to estimate instrument error. […]
# [5] = target: T1, ComR;ComS (Streptococcus mutans …, UniProt Q8DWI6; 1-304;, |); assay: competition (fluorescence polarization); 1.5 uM ComR, 10 uM ComS, 1 nM labeled PcomX; affinity appears identical to PcomX; Previously described reaction buffer (ref 53; composition not given) + 1 mM EDTA, 0.05 mg/ml salmon DNA, 1 nM probe, 37 C, 20 min; ComR dialyzed into PBS pH 7.4; details: tags: His6 tag (pET-45b(+), N-terminal) cleaved with EKMax;; chain copies: 2;2; hairpin, 20 bp stem, CCCCC loop
# [6] = target: T1, ComR;ComS; assay: fluorescence polarization; 10 uM ComS; k2 of two-step model (k1 = 3.2 uM, n = 2.5), global fit with competition; not precisely determined, Text S3 gives k2 range 30-200 nM; Previously described reaction buffer (ref 53; composition not given) + 1 mM EDTA, 0.05 mg/ml salmon DNA, 1 nM probe, 37 C, 20 min; ComR dialyzed into PBS pH 7.4; details: tags: His6 tag (pET-45b(+), N-terminal) cleaved with EKMax;; chain copies: 2;2; label: 5' Bodipy FL-X; hairpin, 20 bp stem, CCCCC loop
molecule,measurement,setting,value
ATGGGACATTTATGTCCTGTCCCCCACAGGACATAAATGTCCCAT [PcomX stem-loop probe],Kd,[1],0.033 µM
"ComR (native, histidine tag cleaved) (receptor)",Kd,[2],7.3 µM
same,"n (order of multimerization of the ComR/peptide complex, two-step model)",[2],2.4
same,Kd,[3],3.2 µM
same,"n (order of multimerization of the ComR/peptide complex, two-step model)",[3],2.5
"PcomX: self-annealing stem-loop DNA, 5′-ATGGGACATTTATGTCCTGTCCCCCACAGGACATAAATGTCCCAT-3′ (5′-Bodipy FL-X in labeled probe) (DNA, 5' {BodipyFLX}, backbone and methylation of C not given here)",affinity of unlabeled probe for ComR by competition,[4],appear to have identical levels of affinity for ComR
"ACGGGACATAAATGTCCTGTCCCCCACAGGACATTTATGTCCCGT (structured_DNA) [PcomS stem-loop, unlabeled]",binding result,[5],binds
ATGGGACATTTATGTCCTGTCCCCCACAGGACATAAATGTCCCAT (structured_DNA) [PcomX stem-loop probe],Kd,[6],0.0022 µM
